Molecular target: YY1 (Mus musculus, UniProt Q00899 1-414)
Assay: EMSA

YY1, sequence (Q00899 whole entry): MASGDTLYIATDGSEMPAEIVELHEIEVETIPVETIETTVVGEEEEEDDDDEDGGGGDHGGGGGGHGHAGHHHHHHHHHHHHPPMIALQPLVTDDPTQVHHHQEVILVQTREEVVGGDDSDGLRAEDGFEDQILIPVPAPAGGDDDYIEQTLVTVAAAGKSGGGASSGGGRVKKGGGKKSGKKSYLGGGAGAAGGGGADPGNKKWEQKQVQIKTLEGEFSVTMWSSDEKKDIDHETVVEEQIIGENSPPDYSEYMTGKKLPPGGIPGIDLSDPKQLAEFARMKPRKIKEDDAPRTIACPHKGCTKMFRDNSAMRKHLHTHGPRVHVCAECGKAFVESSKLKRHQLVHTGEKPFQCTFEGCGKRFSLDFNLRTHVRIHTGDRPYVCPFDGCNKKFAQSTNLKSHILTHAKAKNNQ

B1: Arid1a promoter 30-bp DNA (dsDNA)
DNA 1: CTCTTCTCTCTTAAAATGGCTGCCTGTCTG
DNA 2: CAGACAGGCAGCCATTTTAAGAGAGAAGAG
binding result: binds
